T1: human PAC1 receptor (human, UniProt P41586 24-468)
T1 sequence: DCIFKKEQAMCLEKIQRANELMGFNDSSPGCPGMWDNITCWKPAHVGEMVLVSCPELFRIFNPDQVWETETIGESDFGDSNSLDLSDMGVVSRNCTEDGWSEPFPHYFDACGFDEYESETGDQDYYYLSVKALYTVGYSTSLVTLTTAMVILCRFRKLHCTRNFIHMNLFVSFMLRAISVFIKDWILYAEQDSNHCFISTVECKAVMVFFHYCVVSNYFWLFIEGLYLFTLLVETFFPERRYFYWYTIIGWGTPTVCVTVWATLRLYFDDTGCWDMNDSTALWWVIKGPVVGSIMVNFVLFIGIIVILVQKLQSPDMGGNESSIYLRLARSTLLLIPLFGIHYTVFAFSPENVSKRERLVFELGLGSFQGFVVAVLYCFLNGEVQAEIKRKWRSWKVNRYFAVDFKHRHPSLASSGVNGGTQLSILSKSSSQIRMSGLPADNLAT


What was measured:
human CGRP receptor = human CGRP receptor (human, UniProt Q16602 23-461; O60894 27-148); assay: cell-based or functional assay
human PAC1 receptor = target: T1, human PAC1 receptor; assay: cell-based or functional assay

Sequence of human CGRP receptor (Q16602 23-461 limits assumed, chain 1 of 2): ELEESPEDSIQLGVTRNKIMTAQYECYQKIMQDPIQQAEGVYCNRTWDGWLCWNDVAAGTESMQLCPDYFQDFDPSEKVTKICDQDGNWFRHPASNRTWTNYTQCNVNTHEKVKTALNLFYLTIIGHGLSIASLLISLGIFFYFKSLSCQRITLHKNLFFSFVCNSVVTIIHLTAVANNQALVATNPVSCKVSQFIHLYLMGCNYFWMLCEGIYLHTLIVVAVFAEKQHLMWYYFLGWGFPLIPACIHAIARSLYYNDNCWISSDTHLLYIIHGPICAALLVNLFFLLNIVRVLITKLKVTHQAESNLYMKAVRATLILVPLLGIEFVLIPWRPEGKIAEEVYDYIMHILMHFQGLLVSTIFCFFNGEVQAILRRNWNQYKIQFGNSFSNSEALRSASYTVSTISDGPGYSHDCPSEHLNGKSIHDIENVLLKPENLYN
Sequence of human CGRP receptor (O60894 27-148 limits assumed, chain 2 of 2): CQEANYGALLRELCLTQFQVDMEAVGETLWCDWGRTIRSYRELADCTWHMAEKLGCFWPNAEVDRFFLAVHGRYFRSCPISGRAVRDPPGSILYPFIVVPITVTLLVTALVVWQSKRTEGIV

Row | Binder | Fold-improvement over 4E4 Ab (human CGRP receptor) [fold] | IC50 (human CGRP receptor) [nM] | Fold-improvement over 29G4v22 Ab (human PAC1 receptor) [fold] | IC50 (human PAC1 receptor) [nM]
1 | iPS:454741 (bispecific antibody, human IgG1, kappa, lambda, N297G) light 1: QSVLTQPPSVSAAPGQKVTISCSGSYSNIGRYSVSWYQQLPGTAPKLLIYDNNKRPSGIPDRFSGSKSGTSATLGITGLQTGDEADYYCGTWDSRLSAVVFGGGTKLTVLGQPKAAPSVTLFPPSSEELQANKATLVCLISDFYPGAVTVAWKADSSPVKAGVETTTPSKQSNNKYAAKSYLSLTPEQWKSHRSYSCQVTHEGSTVEKTVAPTECS heavy 1: QVQLVESGGGVVQPGRSLRLSCAASGFTFSSFGMHWVRQAPGKGLEWVAVISFDGSIKYSVDSVKGRFTISRDNSKNTLFLQMNSLRAEDTAVYYCARDRLNYYESSGYYHYKYYGMAVWGQGTTVTVSSASTKGPSVFPLAPSSKSTSGGTAALGCLVKDYFPEPVTVSWNSGALTSGVHTFPAVLQSSGLYSLESVVTVPSSSLGTQTYICNVNHKPSNTKVDKKVEPKSCDKTHTCPPCPAPELLGGPSVFLFPPKPKDTLMISRTPEVTCVVVDVSHEDPEVKFNWYVDGVEVHNAKTKPCEEQYGSTYRCVSVLTVLHQDWLNGKEYKCKVSNKALPAPIEKTISKAKGQPREPQVYTLPPSRKKMTKNQVSLTCLVKGFYPSDIAVEWESNGQPENNYKTTPPVLKSDGSFFLYSKLTVDKSRWQQGNVFSCSVMHEALHNHYTQKSLSLSPGK light 2: EIVLTQSPATLSLSPGERATLSCRASKSVGQSLHWYQQKPGQAPRLLIKYASQSLSGIPARFSGSGSGTDFTLTISSLEPEDFAVYYCHQSSRLPFTFGPGTKVDIKRTVAAPSVFIFPPSDEQLKSGTASVVCLLNNFYPREAKVQWKVDNALQSGNSQESVTEQDSKDSTYSLESTLTLSKADYEKHKVYACEVTHQGLSSPVTKSFNRGEC heavy 2: not shown | 0.8 | 0.64 | 4.2 | 1.58
2 | iPS:454743 (bispecific antibody, human IgG1, kappa, lambda, N297G) light 1: QSVLTQPPSVSAAPGQKVTISCSGSYSNIGRYSVSWYQQLPGTAPKLLIYDNNKRPSGIPDRFSGSKSGTSATLGITGLQTGDEADYYCGTWDSRLSAVVFGGGTKLTVLGQPKAAPSVTLFPPSSEELQANKATLVCLISDFYPGAVTVAWKADSSPVKAGVETTTPSKQSNNKYAAKSYLSLTPEQWKSHRSYSCQVTHEGSTVEKTVAPTECS heavy 1: QVQLVESGGGVVQPGRSLRLSCAASGFTFSSFGMHWVRQAPGKGLEWVAVISFDGSIKYSVDSVKGRFTISRDNSKNTLFLQMNSLRAEDTAVYYCARDRLNYYESSGYYHYKYYGMAVWGQGTTVTVSSASTKGPSVFPLAPSSKSTSGGTAALGCLVKDYFPEPVTVSWNSGALTSGVHTFPAVLQSSGLYSLESVVTVPSSSLGTQTYICNVNHKPSNTKVDKKVEPKSCDKTHTCPPCPAPELLGGPSVFLFPPKPKDTLMISRTPEVTCVVVDVSHEDPEVKFNWYVDGVEVHNAKTKPCEEQYGSTYRCVSVLTVLHQDWLNGKEYKCKVSNKALPAPIEKTISKAKGQPREPQVYTLPPSRKKMTKNQVSLTCLVKGFYPSDIAVEWESNGQPENNYKTTPPVLKSDGSFFLYSKLTVDKSRWQQGNVFSCSVMHEALHNHYTQKSLSLSPGK light 2: EIVLTQSPATLSLSPGERATLSCRASKSVGQSLHWYQQKPGQAPRLLIKYASQSLSGIPARFSGSGSGTDFTLTISSLEPEDFAVYYCHQSSRLPFTFGPGTKVDIKRTVAAPSVFIFPPSDEQLKSGTASVVCLLNNFYPREAKVQWKVDNALQSGNSQESVTEQDSKDSTYSLESTLTLSKADYEKHKVYACEVTHQGLSSPVTKSFNRGEC heavy 2: not shown | 1.1 | 0.52 | 3.8 | 1.66
3 | iPS:454745 (bispecific antibody, human IgG1, kappa, lambda, N297G) light 1: QSVLTQPPSVSAAPGQKVTISCSGSYSNIGRYSVSWYQQLPGTAPKLLIYDNNKRPSGIPDRFSGSKSGTSATLGITGLQTGDEADYYCGTWDSRLSAVVFGGGTKLTVLGQPKAAPSVTLFPPSSEELQANKATLVCLISDFYPGAVTVAWKADSSPVKAGVETTTPSKQSNNKYAAKSYLSLTPEQWKSHRSYSCQVTHEGSTVEKTVAPTECS heavy 1: QVQLVESGGGVVQPGRSLRLSCAASGFTFSSFGMHWVRQAPGKGLEWVAVISFDGSIKYSVDSVKGRFTISRDNSKNTLFLQMNSLRAEDTAVYYCARDRLNYYESSGYYHYKYYGMAVWGQGTTVTVSSASTKGPSVFPLAPSSKSTSGGTAALGCLVKDYFPEPVTVSWNSGALTSGVHTFPAVLQSSGLYSLESVVTVPSSSLGTQTYICNVNHKPSNTKVDKKVEPKSCDKTHTCPPCPAPELLGGPSVFLFPPKPKDTLMISRTPEVTCVVVDVSHEDPEVKFNWYVDGVEVHNAKTKPCEEQYGSTYRCVSVLTVLHQDWLNGKEYKCKVSNKALPAPIEKTISKAKGQPREPQVYTLPPSRKKMTKNQVSLTCLVKGFYPSDIAVEWESNGQPENNYKTTPPVLKSDGSFFLYSKLTVDKSRWQQGNVFSCSVMHEALHNHYTQKSLSLSPGK light 2: EIVLTQSPATLSLSPGERATLSCRASKAVGFSLHWYQQKPGQAPRLLIKYASQSLSGIPARFSGSGSGTDFTLTISSLEPEDFAVYYCHQSSFLPFTFGPGTKVDIKRTVAAPSVFIFPPSDEQLKSGTASVVCLLNNFYPREAKVQWKVDNALQSGNSQESVTEQDSKDSTYSLESTLTLSKADYEKHKVYACEVTHQGLSSPVTKSFNRGEC heavy 2: not shown | 1.3 | 0.46 | 5.2 | 1.2
4 | iPS:454747 (bispecific antibody, human IgG1, kappa, lambda, N297G) light 1: QSVLTQPPSVSAAPGQKVTISCSGSYSNIGRYSVSWYQQLPGTAPKLLIYDNNKRPSGIPDRFSGSKSGTSATLGITGLQTGDEADYYCGTWDSRLSAVVFGGGTKLTVLGQPKAAPSVTLFPPSSEELQANKATLVCLISDFYPGAVTVAWKADSSPVKAGVETTTPSKQSNNKYAAKSYLSLTPEQWKSHRSYSCQVTHEGSTVEKTVAPTECS heavy 1: QVQLVESGGGVVQPGRSLRLSCAASGFTFSSFGMHWVRQAPGKGLEWVAVISFDGSIKYSVDSVKGRFTISRDNSKNTLFLQMNSLRAEDTAVYYCARDRLNYYESSGYYHYKYYGMAVWGQGTTVTVSSASTKGPSVFPLAPSSKSTSGGTAALGCLVKDYFPEPVTVSWNSGALTSGVHTFPAVLQSSGLYSLESVVTVPSSSLGTQTYICNVNHKPSNTKVDKKVEPKSCDKTHTCPPCPAPELLGGPSVFLFPPKPKDTLMISRTPEVTCVVVDVSHEDPEVKFNWYVDGVEVHNAKTKPCEEQYGSTYRCVSVLTVLHQDWLNGKEYKCKVSNKALPAPIEKTISKAKGQPREPQVYTLPPSRKKMTKNQVSLTCLVKGFYPSDIAVEWESNGQPENNYKTTPPVLKSDGSFFLYSKLTVDKSRWQQGNVFSCSVMHEALHNHYTQKSLSLSPGK light 2: EIVLTQSPATLSLSPGERATLSCRASRAVSNLHWYQQKPGQAPRLLIKYASQSLSGIPARFSGSGSGTDFTLTISSLEPEDFAVYYCHQSSYLPFTFGPGTKVDIKRTVAAPSVFIFPPSDEQLKSGTASVVCLLNNFYPREAKVQWKVDNALQSGNSQESVTEQDSKDSTYSLESTLTLSKADYEKHKVYACEVTHQGLSSPVTKSFNRGEC heavy 2: not shown | 1.2 | 0.49 | 2 | 3.09
5 | iPS:454749 (bispecific antibody, human IgG1, kappa, lambda, N297G) light 1: QSVLTQPPSVSAAPGQKVTISCSGSYSNIGRYSVSWYQQLPGTAPKLLIYDNNKRPSGIPDRFSGSKSGTSATLGITGLQTGDEADYYCGTWDSRLSAVVFGGGTKLTVLGQPKAAPSVTLFPPSSEELQANKATLVCLISDFYPGAVTVAWKADSSPVKAGVETTTPSKQSNNKYAAKSYLSLTPEQWKSHRSYSCQVTHEGSTVEKTVAPTECS heavy 1: QVQLVESGGGVVQPGRSLRLSCAASGFTFSSFGMHWVRQAPGKGLEWVAVISFDGSIKYSVDSVKGRFTISRDNSKNTLFLQMNSLRAEDTAVYYCARDRLNYYESSGYYHYKYYGMAVWGQGTTVTVSSASTKGPSVFPLAPSSKSTSGGTAALGCLVKDYFPEPVTVSWNSGALTSGVHTFPAVLQSSGLYSLESVVTVPSSSLGTQTYICNVNHKPSNTKVDKKVEPKSCDKTHTCPPCPAPELLGGPSVFLFPPKPKDTLMISRTPEVTCVVVDVSHEDPEVKFNWYVDGVEVHNAKTKPCEEQYGSTYRCVSVLTVLHQDWLNGKEYKCKVSNKALPAPIEKTISKAKGQPREPQVYTLPPSRKKMTKNQVSLTCLVKGFYPSDIAVEWESNGQPENNYKTTPPVLKSDGSFFLYSKLTVDKSRWQQGNVFSCSVMHEALHNHYTQKSLSLSPGK light 2: EIVLTQSPATLSLSPGERATLSCRASKSVGRSLHWYQQKPGQAPRLLIKYASQSLSGIPARFSGSGSGTDFTLTISSLEPEDFAVYYCHQSSRLPFTFGPGTKVDIKRTVAAPSVFIFPPSDEQLKSGTASVVCLLNNFYPREAKVQWKVDNALQSGNSQESVTEQDSKDSTYSLESTLTLSKADYEKHKVYACEVTHQGLSSPVTKSFNRGEC heavy 2: not shown | 1.4 | 0.41 | 7.5 | 0.83
6 | iPS:454751 (bispecific antibody, human IgG1, kappa, lambda, N297G) light 1: QSVLTQPPSVSAAPGQKVTISCSGSYSNIGRYSVSWYQQLPGTAPKLLIYDNNKRPSGIPDRFSGSKSGTSATLGITGLQTGDEADYYCGTWDSRLSAVVFGGGTKLTVLGQPKAAPSVTLFPPSSEELQANKATLVCLISDFYPGAVTVAWKADSSPVKAGVETTTPSKQSNNKYAAKSYLSLTPEQWKSHRSYSCQVTHEGSTVEKTVAPTECS heavy 1: QVQLVESGGGVVQPGRSLRLSCAASGFTFSSFGMHWVRQAPGKGLEWVAVISFDGSIKYSVDSVKGRFTISRDNSKNTLFLQMNSLRAEDTAVYYCARDRLNYYESSGYYHYKYYGMAVWGQGTTVTVSSASTKGPSVFPLAPSSKSTSGGTAALGCLVKDYFPEPVTVSWNSGALTSGVHTFPAVLQSSGLYSLESVVTVPSSSLGTQTYICNVNHKPSNTKVDKKVEPKSCDKTHTCPPCPAPELLGGPSVFLFPPKPKDTLMISRTPEVTCVVVDVSHEDPEVKFNWYVDGVEVHNAKTKPCEEQYGSTYRCVSVLTVLHQDWLNGKEYKCKVSNKALPAPIEKTISKAKGQPREPQVYTLPPSRKKMTKNQVSLTCLVKGFYPSDIAVEWESNGQPENNYKTTPPVLKSDGSFFLYSKLTVDKSRWQQGNVFSCSVMHEALHNHYTQKSLSLSPGK light 2: EIVLTQSPATLSLSPGERATLSCRASKSVGRSLHWYQQKPGQAPRLLIKYASQSLSGIPARFSGSGSGTDFTLTISSLEPEDFAVYYCHQSSRLPFTFGPGTKVDIKRTVAAPSVFIFPPSDEQLKSGTASVVCLLNNFYPREAKVQWKVDNALQSGNSQESVTEQDSKDSTYSLESTLTLSKADYEKHKVYACEVTHQGLSSPVTKSFNRGEC heavy 2: not shown | 1.2 | 0.43 | 12.2 | 0.52
